Each block holds one binder with its values, some of them ahead of it.
Columns and labels:
[1] = target: T1, 8 AA stub (a.a. 296-303 of SEQ ID NO: 247) (human); assay: competition of OVCAR8 cell binding by the peptide
T1 construct: also called 8 AA Peptide; peptide of the last 8 C-terminal amino acids
T1 peptide: LSMQEALS

[2] = target: T2, MSNW11, recombinant soluble (shed) MSLN lacking the C-terminal 7 AAs (human, UniProt Q13421 296-591); assay: H838 cell binding with shed MSLN (MSNW11) added
T2 construct: domain: soluble MSLN lacking the C-terminal 7 AAs; also called MSNW11.002; soluble MSLN
Source text: (§1) Table 16 lists the immunization campaigns, antigens used, and number of clones returned at each stage of screening. Clones from which antibody sequences were successfully recovered were first screened for binding to recombinant full length human MSLN (MSNW10) and H838 cells that express MSLN on the cell surface. Binders were further screened for binding to cells in the presence of recombinant soluble MSLN lacking the C-terminal 7 AAs (MSNW11). This form of recombinant MSLN represented the product of cleavage at the closest cleavage site to the C-terminus known at the time, therefore, it theoretically represented the longest form of shed MSLN. The final concentration of shed MSLN in the assays was 100 nM.

[3] = target: T3, 12 AA stub region peptide LVLDLSMQEALS (human); assay: SPR
T3 construct: free N-terminus; also called 12 AA Peptide
T3 peptide: LVLDLSMQEALS

[4] = target: T4, 11 AA stub (a.a. 293-303 of SEQ ID NO: 247) (human); assay: SPR, mAb captured, peptide injected
T4 peptide: VLDLSMQEALS
Method: (§2) The binding was assessed by SPR. Briefly, GAH-Fc was used to capture mAbs on C4 sensor chip followed by antigen injection starting at 30 nM (14 amino acid stub), 100 nM (10-13 amino acid stubs), or 1000 nM (7-9 amino acid stubs) progressing in a 3-fold dilution series in single cycle kinetics mode. HBSP+0.01% BSA was used in the assay.

[5] = target: T5, 10 AA stub (a.a. 294-303 of SEQ ID NO: 247) (human); assay: SPR, mAb captured, peptide injected
T5 peptide: LDLSMQEALS
Method: as §2

[6] = target: T6, 9 AA stub (a.a. 295-303 of SEQ ID NO: 247) (human); assay: SPR, mAb captured, peptide injected
T6 peptide: DLSMQEALS
Method: as §2

[7] = target: T7, 13 AA stub (a.a. 291-303 of SEQ ID NO: 247) (human); assay: SPR, mAb captured, peptide injected
T7 peptide: YLVLDLSMQEALS
Method: as §2

[8] = target: T8, 14 AA stub (a.a. 290-303 of SEQ ID NO: 247) (human); assay: SPR, mAb captured, peptide injected
T8 peptide: GYLVLDLSMQEALS
Method: as §2

[9] = target: T9, 7 AA stub (a.a. 297-303 of SEQ ID NO: 247) (human); assay: SPR, mAb captured, peptide injected
T9 peptide: SMQEALS
Method: as §2

[10] = target: T10, human MSLN on the cell surface (human, UniProt Q13421 296-598); assay: high content imaging, surface staining of OVCAR8 cells
T10 construct: on cells stands the processed GPI-anchored 40 kDa MSLN; also called membrane MSLN; MSLN on H838, OVCAR-8 (OVCAR8), OVCAR-8 K1/C8, SK-OV-3 cells
Method: OVCAR8 cells were cultured in RPMI 1640 medium supplemented with 10% FCS, 1% L-glutamine and 1% Gentamycin and seeded in Greiner CELLSTAR plate one day before experiment. 24 h after seeding, antibody mixture was prepared by diluting MSLN and control antibodies in Table 21 in full media containing CellMask™ Deep Red Plasma Membrane Stain (ThermoFisher, C10046) in 12 concentrations each with 3 folds dilution starting from 20 μg/ml and 20 μl of which were added directly to the cells in 20 μl. Antibodies were allowed for binding to the cell surface for 2h inside the incubator (37°) C. and the surface bound antibodies were fixed for 15 min at RT by directly adding 30 ul of 10% Formaldehyde (04018-1, Polysciences). Afterwards residual Formaldehyde was removed by washing the cells twice with PBS and the primary antibodies were stained with secondary antibodies (Alexa Fluor 488 goat anti-human IgG, Invitrogen, A11013) complemented with Hoechst 33342 (H3570, ThermoFisher) and HCS CellMask™ Deep Red Stain (ThermoFisher, H32721) in PBS for 1h at RT. After removing unbound antibodies and other dyes by washing the cells 3 times with PBS cells were imaged on the CellVoyager 7000 (Yokogawa, Tokyo, Japan) using a 40×/0.95 objective. Of each well, 9 fields were imaged. Image analysis was performed with Acapella (PerkinElmer, Waltham, MA, USA) and the results stored in Phaedra (OpenAnalytics, Antwerp, Belgium). Data analysis was done in R (www.r-project.org).
The data was then fitted using the four-parameter logistic using least-squares regression, keeping the lower boundary fixed at 0.

[11] = target: T11, MSNW10, recombinant full length human MSLN (human, UniProt Q13421 296-598); assay: SPR, recombinant full-length human MSLN
T11 construct: also called MSNW10.002; FL-MSLN

[12] = target: T10, human MSLN on the cell surface; assay: binding to H838 cells with and without 100 nM recombinant shed MSLN (MSNW11); the two curves lie on each other
Source text: as §1

[13] = target: T12, CD3 epsilon on human T-cells (human, UniProt P07766 23-207); assay: cell-based or functional assay
[14] = target: T12, CD3 epsilon on human T-cells; assay: cell-based or functional assay; remark: listed apart in the source
[15] = target: T10, human MSLN on the cell surface; assay: flow cytometry (MFI PE) on OVCAR-8 cells
[16] = target: T12, CD3 epsilon on human T-cells; assay: T-cell binding assay, FIG. 15
[17] = target: T13, MSLN with Met593Val on cells homozygous for SNP rs1135210 (SNP G|G) (human, UniProt Q13421 296-598); assay: binding to homozygous SNP-positive cells
T13 construct: also called homozygous SNP-positive cells; BxPC3, NCI-H322

[18] = target: T3, 12 AA stub region peptide LVLDLSMQEALS; assay: SPR, mAb captured, peptide injected
Method: as §2

[19] = target: T1, 8 AA stub (a.a. 296-303 of SEQ ID NO: …); assay: SPR, mAb captured, peptide injected
Method: as §2

[20] = target: T11, MSNW10, recombinant full length human …; assay: SPR, additional experiments

T2 sequence (Q13421 other isoform, or with tags, fused parts or gaps limits assumed): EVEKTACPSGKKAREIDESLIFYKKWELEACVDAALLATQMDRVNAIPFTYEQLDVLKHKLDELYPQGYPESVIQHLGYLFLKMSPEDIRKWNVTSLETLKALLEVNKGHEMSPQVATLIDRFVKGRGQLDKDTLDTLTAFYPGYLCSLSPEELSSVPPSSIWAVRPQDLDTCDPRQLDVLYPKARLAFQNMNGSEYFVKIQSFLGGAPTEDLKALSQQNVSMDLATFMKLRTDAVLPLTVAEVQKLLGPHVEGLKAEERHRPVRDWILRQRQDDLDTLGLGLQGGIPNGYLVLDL
T12 sequence (P07766 23-207 limits assumed): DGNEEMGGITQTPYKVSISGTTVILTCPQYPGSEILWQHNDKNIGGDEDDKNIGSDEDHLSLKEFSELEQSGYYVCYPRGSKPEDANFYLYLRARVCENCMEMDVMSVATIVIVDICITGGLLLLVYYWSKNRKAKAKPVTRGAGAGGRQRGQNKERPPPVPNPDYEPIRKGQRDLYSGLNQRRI
T10 sequence (Q13421 other isoform, or with tags, fused parts or gaps limits assumed): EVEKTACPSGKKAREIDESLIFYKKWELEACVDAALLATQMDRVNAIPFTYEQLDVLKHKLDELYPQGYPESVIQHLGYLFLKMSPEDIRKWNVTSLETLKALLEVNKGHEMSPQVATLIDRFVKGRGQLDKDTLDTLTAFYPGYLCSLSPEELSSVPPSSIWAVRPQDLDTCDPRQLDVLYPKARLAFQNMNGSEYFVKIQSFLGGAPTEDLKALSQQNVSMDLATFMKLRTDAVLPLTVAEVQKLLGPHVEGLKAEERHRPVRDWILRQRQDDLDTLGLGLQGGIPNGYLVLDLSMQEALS
T13 sequence (Q13421 other isoform, or with tags, fused parts or gaps M593V M593V limits assumed): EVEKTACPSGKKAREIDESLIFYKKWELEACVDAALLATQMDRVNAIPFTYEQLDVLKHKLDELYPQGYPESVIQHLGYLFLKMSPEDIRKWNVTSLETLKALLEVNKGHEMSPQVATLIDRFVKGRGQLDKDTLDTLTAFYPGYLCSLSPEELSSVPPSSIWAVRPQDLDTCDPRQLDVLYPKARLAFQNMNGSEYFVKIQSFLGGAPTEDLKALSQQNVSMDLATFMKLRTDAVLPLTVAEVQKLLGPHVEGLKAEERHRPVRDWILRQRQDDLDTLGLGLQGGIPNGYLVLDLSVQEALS

B1: MSNB124 (antibody, V domains shown)
VH: QVQLQQSGPGLVKPSQTLSLTCAISGDSVSSNSVAWHWIRQSPSRGLEWLGRTYHRSKWYNDYAVSVKSRITINPDTSKNQFSLQLNSVTPEDTAVYYCARQILGALDYWGQGTLVTVSS
VL: DIVMTQTPLSLPVTPGEPASISCRSSQSLQFGNGNYLDWYLQKPGQSPQLLIYLGSNRASGVPDRFSGSGSGTDFTLKISRVEAEDVGVYYCMQVLQIPFTFGPGTKVDIK
notes: mAb
binding result [1]: no binding
binding result [2]: no binding (tested: 100 nM)
binding result [3]: binds
binding result [4]: no binding (tested: 100 nM)
binding result [5]: no binding (tested: 100 nM)
binding result [6]: no binding (tested: 1000 nM)
Kd [7]: 14 nM
binding result [8]: binds
binding result [9]: no binding (tested: 1000 nM)
IC50 [10]: 0.0735 µg/mL
Maximum Value (arbitrary units) [10]: 1.46e+07 arbitrary units
Kd [11]: 6.4 nM
EC50 (read off the curve) [12]: ~0.4 nM

B2: MNC3B55 (bispecific antibody)
scFv: EVQLVESGGGLVKPGGSLRLSCAASGFTFSRYNMNWVRQAPGKGLEWVSSISTSSNYIYYADSVKGRFTFSRDNAKNSLDLQMSGLRAEDTAIYYCTRGWGPFDYWGQGTLVTVSSGGSEGKSSGSGSESKSTGGSDIQMTQSPSSLSASVGDRVTITCRARQSIGTAIHWYQQKPGKAPKLLIKYASESISGVPSRFSGSGSGTDFTLTISSLQPEDFATYYCQQSGSWPYTFGQGTKLEIK
VH: QVQLVESGPGQVKPSQTLSLTCAISGDSVSSNSAAWNWIRQSPSRGLEWLGRTYYRSKWYNDYAVSVKSRITINPDTSKNQFSLQLNSVTPEDTAVYYCARRDYSSGGFDYWGQGTTVTVSS
VL: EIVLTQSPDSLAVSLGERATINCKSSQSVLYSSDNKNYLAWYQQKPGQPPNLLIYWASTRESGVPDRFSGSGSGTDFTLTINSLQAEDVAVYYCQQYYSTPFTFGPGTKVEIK
cytotoxicity EC50, NCI-H838 cells, pan T-cells 5:1 E:T, 48 hours [13]: 0.027 nM

B3: MNC3B193 (bispecific antibody)
scFv: DIQMTQSPSSLSASVGDRVTITCRARQSIGTAIHWYQQKPGKAPKLLIKYASESISGVPSRFSGSGSGTDFTLTISSLQPEDFATYYCQQSGSWPYTFGQGTKLEIKGGSEGKSSGSGSESKSTGGSEVQLVESGGGLVKPGGSLRLSCAASGFTFSRYNMNWVRQAPGKGLEWVSSISTSSNYIYYADSVKGRFTFSRDNAKNSLDLQMSGLRAEDTAIYYCTRGWGPFDYWGQGTLVTVSS
VH: B2 VH
VL: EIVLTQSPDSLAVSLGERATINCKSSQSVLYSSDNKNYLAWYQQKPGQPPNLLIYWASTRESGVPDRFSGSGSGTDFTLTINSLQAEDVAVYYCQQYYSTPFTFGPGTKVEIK
notes: Bipod: MSNB457 Fab x CD3W245 LH scFv-Fc; also called CD3W245 LH containing Bipod
AC90 [nM], cytotoxicity, 1:1 E:T, 72 hours [14]: 0.25 nM
Max. Activity, cytotoxicity, 1:1 E:T, 72 hours [14]: 91%
qAC50 [nM], cytotoxicity, 1:1 E:T, 72 hours [14]: 0.1 nM
EC50 (read off the curve) [15]: ~8 nM
EC50 [16]: 46 nM

B4: MNC3B187 (bispecific antibody)
scFv: B2 scFv
VH: B2 VH
VL: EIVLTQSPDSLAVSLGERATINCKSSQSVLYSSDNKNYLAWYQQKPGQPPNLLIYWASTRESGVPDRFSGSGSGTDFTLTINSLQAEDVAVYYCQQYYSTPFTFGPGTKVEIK
notes: Bipod: MSNB457 Fab x CD3W245 HL scFv-Fc; also called CD3W245 HL containing Bipod
AC90 [nM], cytotoxicity, 1:1 E:T, 72 hours [14]: 0.016 nM
Max. Activity, cytotoxicity, 1:1 E:T, 72 hours [14]: 88%
qAC50 [nM], cytotoxicity, 1:1 E:T, 72 hours [14]: 0.0035 nM
EC50 [16]: 2 nM

Continued, in another order:

binding result [17]: no binding
B5: MNC3B130 (bispecific antibody)
scFv: B3 scFv
VH: B2 VH
VL: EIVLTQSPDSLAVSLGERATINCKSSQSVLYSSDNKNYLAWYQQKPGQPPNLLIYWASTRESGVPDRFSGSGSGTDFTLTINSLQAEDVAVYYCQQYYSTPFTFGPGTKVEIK
notes: MSNB457 Fab x CD3W245 LH scFv; Fc chain 1 T350V/L351Y/F405A/Y407V, Fc chain 2 T350V/T366L/K392/T394W; also called mrMSLN-MSNB457 x W245LH alternative heterodimerization scaffold
cytotoxicity EC50, NCI-H838 cells, pan T-cells 5:1 E:T, 48 hours [13]: 0.15 nM

binding result [2]: no binding (tested: 100 nM)
binding result [4]: no binding (tested: 100 nM)
binding result [5]: no binding (tested: 100 nM)
binding result [6]: no binding (tested: 1000 nM)
Kd [7]: 1.08 nM
Kd [18]: 2.04 nM
Kd [8]: 0.563 nM
binding result [9]: no binding (tested: 1000 nM)
binding result [19]: no binding (tested: 1000 nM)
Kd [20]: 0.3 nM
B6: MSLNB591 (antibody, V domains shown)
VH: QVQLQQSGPGLVKPSQTLSLTCGISGDSVSSSSVAWNWIRQSPSRGLEWLGRTYYRSKWYNDYAISVRSRVTINPDTSKNQFSLQLNSVTPEDTAVYYCSRGVVGALDYWGQGTLVTVSS
VL: DIVMTQSPLSLTVTPGEPASISCRSSQSLLFTNGYNSLDWYLQKPGQSPQFLIYLVSNRASGVPDRFSGSGSGTDFTLKISRVEAEDVGVYYCMQALRTPYTFGQGTKVDIK
notes: mAb; also called MSNB591

binding result [2]: no binding (tested: 100 nM)
binding result [4]: no binding (tested: 100 nM)
binding result [5]: no binding (tested: 100 nM)
binding result [6]: no binding (tested: 1000 nM)
Kd [7]: 5.99 nM
Kd [18]: 4.06 nM
Kd [8]: 1.99 nM
binding result [9]: no binding (tested: 1000 nM)
binding result [19]: no binding (tested: 1000 nM)
IC50 [10]: 0.166 µg/mL
Maximum Value (arbitrary units) [10]: 1.6e+07 arbitrary units
Kd [20]: 3.4 nM
B7: MSLNB569 (antibody, V domains shown)
VH: QVQLQQSGPGLVKPSQTLSLTCAISGDSVSSTRAAWNWIRQSPSRGLEWLGRTYYRSKWYNDYTVSVKSRITINPDTSKNQFSLHLNSVTPEDSAVYFCARGNVGRVDFWGQGTLVTVSS
VL: EIVMTQSPLSLPVTPGEPASISCRSSQSLLHSDGYNYLDWYLQKPGQSPQLLIYLGSNRASGVPDRFSGSGSDTDFTLKISRVEAEDVGVYYCMQGLRTPLTFGPGTKVDIK
notes: mAb; also called MSLNB569.001; MSNB569

Source: patent publication US20240166737A1 (Janssen / Centocor, published 2024)
